US20250296996A1 (BROADWING BIO, published 2025)

T1: P66 (rabbit ANGPTL7-his) (rabbit, UniProt G1T4P1 27-344)
T1 construct: mature; also called rabbit ANGPTL7 protein
T1 sequence: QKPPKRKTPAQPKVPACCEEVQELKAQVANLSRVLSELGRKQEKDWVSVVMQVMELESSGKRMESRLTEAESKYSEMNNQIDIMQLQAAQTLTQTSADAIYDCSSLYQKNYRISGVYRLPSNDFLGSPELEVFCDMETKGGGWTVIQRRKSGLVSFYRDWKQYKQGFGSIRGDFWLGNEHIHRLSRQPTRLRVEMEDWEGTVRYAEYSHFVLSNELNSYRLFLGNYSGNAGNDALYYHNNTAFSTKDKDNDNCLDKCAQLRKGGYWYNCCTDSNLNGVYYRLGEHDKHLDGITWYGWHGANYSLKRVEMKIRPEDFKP

T2: Pext-01 (huANGTPL7-FLAG multimer) (human, UniProt O43827 27-346)
T2 construct: also called PExt-1; human wild type ANGPTL7 multimer; not shown: FLAG tag
T2 sequence: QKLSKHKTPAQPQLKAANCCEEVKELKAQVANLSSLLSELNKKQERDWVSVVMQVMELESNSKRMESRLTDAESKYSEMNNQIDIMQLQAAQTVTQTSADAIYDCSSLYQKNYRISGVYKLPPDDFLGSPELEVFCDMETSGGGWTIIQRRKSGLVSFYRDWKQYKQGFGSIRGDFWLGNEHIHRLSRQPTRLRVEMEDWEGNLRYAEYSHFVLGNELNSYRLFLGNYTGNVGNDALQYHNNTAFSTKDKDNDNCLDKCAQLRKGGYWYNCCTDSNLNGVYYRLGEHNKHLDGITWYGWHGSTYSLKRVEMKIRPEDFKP

T3: P60 (huANGPTL7-Fibrinogen-his) (human, UniProt O43827 129-343)
T3 construct: also called human ANGPTL7 fibrinogen domain; not shown: C-terminal short linker and His tag
T3 sequence: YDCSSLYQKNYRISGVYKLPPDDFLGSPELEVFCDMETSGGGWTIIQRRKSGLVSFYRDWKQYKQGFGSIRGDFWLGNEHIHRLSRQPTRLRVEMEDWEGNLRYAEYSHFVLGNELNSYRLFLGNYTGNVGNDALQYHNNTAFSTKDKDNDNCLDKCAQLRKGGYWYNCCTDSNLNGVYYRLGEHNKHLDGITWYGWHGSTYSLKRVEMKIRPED

T4: muANGPTL7-his (R&D Systems) (mouse, UniProt Q8R1Q3 22-337, limits assumed)
T4 construct: Bought protein; also called mouse ANGPTL7 protein
T4 sequence (looked up): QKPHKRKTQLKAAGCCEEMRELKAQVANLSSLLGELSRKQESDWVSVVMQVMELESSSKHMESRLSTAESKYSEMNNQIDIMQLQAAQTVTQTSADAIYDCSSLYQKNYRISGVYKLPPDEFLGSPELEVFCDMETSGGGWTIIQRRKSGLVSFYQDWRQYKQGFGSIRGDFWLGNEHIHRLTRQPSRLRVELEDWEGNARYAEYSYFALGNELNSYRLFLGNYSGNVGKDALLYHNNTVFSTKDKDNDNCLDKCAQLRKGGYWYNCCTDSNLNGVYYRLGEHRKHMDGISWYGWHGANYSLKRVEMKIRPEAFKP


Experiments:
[1] = molecular target: T1, P66 (rabbit ANGPTL7-his); assay: BLI Octet HTX; IgG on AHC sensor; P66 at 200 nM; 1:1 fit
Description: (§1) Experiments were also conducted to determine the reactivity and dissociation constants (KA) of anti-ANGPTL7 antibodies with the rabbit ANGPTL7 protein. Binding experiments were performed on Octet HTX (ForteBio) in Rx PBS, pH 7.4, 0.1 mg/mi BSA, 0.05% Sodium Azide, and 0.02% Tween 20. Antibodies at a concentration of 50 nM were loaded on pre-hydrated AHC biosensors for 5 min. The loaded sensors were dipped into monovalent P66 (rabbit ANGPTL7-his) at a concentration of 200 nM for 5 min of association, followed by 10 min of dissociation. […] Responses (nm) at the end of association were also determined (Table 6).

[2] = molecular target: T2, Pext-01 (huANGTPL7-FLAG multimer); assay: BLI Octet HTX; IgG on AHC sensor; Pext-01 at 100 nM; 1:1 fit; apparent KD
Description: Experiments were also conducted to determine the reactivity and dissociation constants (KD) of anti-ANGPTL7 antibodies with the human ANGPTL7 multimer protein. Binding experiments were performed on Octet HTX (ForteBio) in 1×PBS, pH 7.4, 0.1 mg/ml BSA, 0.05% Sodium Azide, and 0.02% Tween 20. Antibodies at a concentration of 50 nM were loaded on pre-hydrated AHC biosensors for 5 mi. The loaded sensors were dipped into Pext-01 (huANGTPL7-FLAG) at a concentration of 100 nM for 5 min of association, followed by 10 min of dissociation. […] Responses (nm) at the end of association were also determined (Table 7).

[3] = molecular target: T3, P60 (huANGPTL7-Fibrinogen-his); assay: BLI Octet HTX; IgG on AHC sensor; P60 at 200 nM; 1:1 fit
Description: (§2) ANGPTL7 Antibody Kinetics. Experiments were conducted to determine the reactivity and dissociation constants (KD) of anti-ANGPTL7 antibodies with the human fibrinogen domain of the ANGPTL7 protein. Binding experiments were performed on Octet HTX (ForteBio) in 1×PBS, pH 7.4, 0.1 mg/ml BSA, 0.05% Sodium Azide, and 0.02 Tween 20. Antibodies at a concentration of 50 nM were loaded on pre-hydrated AHC biosensors for 5 min. The loaded sensors were dipped into monovalent P60 (huANGPTL7-Fibrinogen-his) at a concentration of 200 nM for 5 min association, followed by 10 min dissociation. […] Responses (nm) at the end of association were also determined (Table 2).

[4] = molecular target: T4, muANGPTL7-his (R&D Systems); assay: BLI Octet HTX; IgG on AHC sensor; muANGPTL7-his at 200 nM; 1:1 fit
Description: as §1, with “(KD)” for “(KA)”, “mouse” for “rabbit”, “1×PBS,” for “Rx PBS,”, “[…].” for “min.”, “muANGPTL7-his (R&D Systems)” for “P66 (rabbit ANGPTL7-his)”, “5).” for “6).”

[5] = molecular target: T4, muANGPTL7-his (R&D Systems); assay: BLI Octet HTX; IgG on AHC sensor; muANGPTL7-his at 200 nM
Description: as §1, with “(KD)” for “(KA)”, “mouse” for “rabbit”, “1×PBS,” for “Rx PBS,”, “[…].” for “min.”, “muANGPTL7-his (R&D Systems)” for “P66 (rabbit ANGPTL7-his)”, “5).” for “6).”

[6] = molecular target: T3, P60 (huANGPTL7-Fibrinogen-his); assay: BLI Octet HTX; IgG on AHC sensor; P60 at 200 nM
Description: as §2

| Binder | Kd [1] | Response [1] | Response [2] | Kd [3] | Response [4] | binding result [5] | binding result [6] | Response [3] | Kd [4] | Kd [2] |
| --- | --- | --- | --- | --- | --- | --- | --- | --- | --- | --- |
| ATX-P-425 (antibody, human IgG1, kappa, N297A, V domains shown, Full chains (VH + hIgG1-Agly-Fc)) VH: EVQLVESGGGLVKPGGSLRLSCAASGFTFSTYSMNWVRQAPGKGLEWVSSITSSSSYMFYADSVMGRFTISRDNAKNSLYLQMNSLRAEDTADYYCARDSNWGEAFDIWGQGTMVTVSS VL: DIQMTQSPSSLSASVGDRVTITCRASQGIRIDLGWFQQKPGKAPKRLIYAASSLPSGVPSRFSGSGSGTEFTLTISSLQPEDFATYYCLQHNSYPWTFGQGTKVEIKR | 2.38 nM | 0.95 nm | 0.83 nm | 305 nM |  |  |  |  |  |  |
| ATX-P-445 (antibody, human IgG1, kappa, N297A, V domains shown, Full chains (VH + hIgG1-Agly-Fc)) VH: EVQLVESGGGLVQPGGSLRLSCAASGFTFSSHDMHWVRQVTGKGLEWVSGIDPAGDTYYPDSVKGRFTISRENAKNSLYLQMNSLRAGDTAVYYCTRGEASSSSEDAFDIWGQGTMVTVSS VL: not shown |  |  | 0.8 nm |  | 0.01 nm | no binding (tested: 200 nM) | no binding (tested: 200 nM) | 0.12 nm |  |  |
| ATX-P-427 (antibody, human IgG1, kappa, N297A, V domains shown, Full chains (VH + hIgG1-Agly-Fc)) VH: EVQLVESGGGVVRPGGSLRLSCAASGFSFDDYGMSWVRQVPGKGLEWVSGINWNGGSTGYADSVKGRFTISRDNAKNSLYLQMSSLRAEDTALYYCASYSGSFRDAFDIWGQGTMVTVSS VL: AIQMTQSPSSLSASVGDRVTITCRASQGIRNDLGWYQQKPGKAPKLLIYAASSLQSGVPSRFSGSGSGTDFTLTISSLQPEDFATYYCLQDYNYPYTFGQGTKLEIKR | 3.21 nM | 0.93 nm | 0.82 nm | 65.1 nM | 0.48 nm |  |  | 0.5 nm | 10.3 nM |  |
| ATX-P-423 (antibody, human IgG1, kappa, N297A, V domains shown, Full chains (VH + hIgG1-Agly-Fc)) VH: QVQLVESGGGVVQPGRSLRLSCAASGFTFSSYGMHWVRQAPGKGLEWVSHITYDGSDKYYGDSVKGRFTISRDNSKNTLYLQMNSLRAEDTAVYYCAKDGYSSGWWYFDYWGQGTLVTVSS VL: DIQMTQSPSSLSASVGDRVTITCRASQGIRNDLGWYQQKPGKAPKRLIYAASSLQSGVPSRFSGSGSGTEFALTISSLQPEDFATYYCLQHNSYPLTFGGGTKLEIKR | 6.69 nM | 1.02 nm | 0.87 nm | 18.3 nM | 0.14 nm | no binding (tested: 200 nM) |  |  |  |  |
| ATX-P-424 (antibody, human IgG1, kappa, N297A, V domains shown, Full chains (VH + hIgG1-Agly-Fc)) VH: EVQLVESGGGLVKPGGSLRLSCAASGFTFSSYSMNWVRQAPGKGLEWVSSITSSSYIFYADSLKGRFTISRDNAKNSLFLQMNSLRAEDTAVYYCARDSNWGEAFDIWGQGTMVTVSS VL: DIQMTQSPSSLSASVGDRVTITCRASQGIRNDLGWYQQKPGKAPKRLIYAASSLPSGVPSRFSGSGSGTEFTLTISSLQPEDFAIYYCLQHNSYPWTFGQGTKVEIKR | 4.65 nM | 0.93 nm | 0.76 nm | 106 nM | 0.14 nm | no binding (tested: 200 nM) |  |  |  |  |
| ATX-P-432 (antibody, human IgG1, kappa, N297A, V domains shown, Full chains (VH + hIgG1-Agly-Fc)) VH: QVQLVQSGAEVKKPGASVKVSCKASGYTFTDYYIHWVRQAPGPGLEWLGWINPNTGATKYAQKFQGRVTMTRDTSISTAYMELSRLRSDDTAVYYCAREDNGNYGDVFDIWGQGTMVTVSS VL: not shown |  |  |  |  | 0.03 nm | no binding (tested: 200 nM) |  |  |  |  |
| ATX-P-439 (antibody, human IgG1, kappa, N297A, V domains shown, Full chains (VH + hIgG1-Agly-Fc)) VH: not shown VL: DIQMTQSPSSVSASVGDRVTITCRASQGISSWLAWYQQKPGKAPKLLIYAASSLQSGVPSRFSGSGSGTDFTLTISSLQPEDFATYYCQQANSFPWTFGQGTKVDIKR | 2.95 nM | 0.92 nm | 0.87 nm |  | 0.53 nm |  |  | 0.28 nm |  | 12.8 nM |
| ATX-P-440 (antibody, human IgG1, kappa, N297A, V domains shown, Full chains (VH + hIgG1-Agly-Fc)) VH: EVQLVESGGGVVRPGGSLRLSCAASGFTFDDYGMSWVRQAPGKGLEWVSTINWNGGNTGYADSVKGRFTISRDNAKNSLYLQMNSLRAEDTALYYCARDEGAAGLGYYFDYWGQGTLVTVSS VL: DIQMTQSPSTLSASVGDRVTITCRASQSISSWLAWYQQKPGKAPKLLIYATSSLQSGVPSRFSGSGSGTDFTLTISSLQPEDFATYYCQQSYSTPITFGQGTRLEIKR | 6.27 nM | 0.57 nm | 0.61 nm | 55.8 nM | 0.21 nm |  |  |  | 55.3 nM |  |
| ATX-P-442 (antibody, human IgG1, kappa, N297A, V domains shown, Full chains (VH + hIgG1-Agly-Fc)) VH: QITLKESGPTLVKPTQTLTLTCTFSGFSLSTSGVGVGWIRQPPGKALEWLALIYWNDDKRYSPSLKSRLTITKDTSKNLVVLTMTNMDPVDTATYYCARDYGDYWFFDLWGRGTPVTVSS VL: DIQMTQSPSSLSASVGDRVTITCRASQGISSYLAWYQQKPGKAPKLLIYAASSLQSGVPSRFSGSGSGTDFTLTISSLQPEDFATYYCQQSFSTPLTFGGGTKLEIKR | 3.38 nM | 0.95 nm |  | 4.62 nM | 0.32 nm |  |  | 0.69 nm |  |  |
| ATX-P-448 (antibody, human IgG1, kappa, N297A, V domains shown, Full chains (VH + hIgG1-Agly-Fc)) VH: QVQLVESGGGVVQPGRSLRLSCAASGFPFSSYGMHWVRQAPGKGLEWVAVMSYDGINGYYADSVKGRFTISRDNSKNTLYLQMNSLRAEDTAVYYCARLVYADDAFDIWGQGTTVTVSS VL: EIVLTQSPATLSLSPGERATLSCRASQSVSSYLAWYQQKPGQAPRLLIYDASNRATGIPARFSGSGSGTDFTLTISSLEPEDFAVYYCQQRSNWPLTFGGGTKVEIKR | 0.949 nM | 0.75 nm | 0.58 nm | 4.69 nM | 0.69 nm |  |  |  |  |  |
